Numbered stars: 1 amine (or outer) side, 2 acyl side, 3 side chain; on linkers, the order of the positions; unused ones are H or OH. Square brackets hold non-standard residues; d marks the D form. Side chains are listed from the residue outwards. * marks the point of attachment. C20 diacid = O=C(O)CCCCCCCCCCCCCCCCCCC(=O)*; C18 diacid = O=C(O)CCCCCCCCCCCCCCCCC(=O)*; γGlu = O=C(O)[C@H](CCC(=O)[*:2])N[*:1]; Chem. 28 = not defined here; Chem. 29 = not defined here; AEEA = NCCOCCOCC(=O)O; Aib = CC(C)(N)C(=O)O
T1: human GIP receptor (human, UniProt P48546 22-466)
T1 sequence (looked up): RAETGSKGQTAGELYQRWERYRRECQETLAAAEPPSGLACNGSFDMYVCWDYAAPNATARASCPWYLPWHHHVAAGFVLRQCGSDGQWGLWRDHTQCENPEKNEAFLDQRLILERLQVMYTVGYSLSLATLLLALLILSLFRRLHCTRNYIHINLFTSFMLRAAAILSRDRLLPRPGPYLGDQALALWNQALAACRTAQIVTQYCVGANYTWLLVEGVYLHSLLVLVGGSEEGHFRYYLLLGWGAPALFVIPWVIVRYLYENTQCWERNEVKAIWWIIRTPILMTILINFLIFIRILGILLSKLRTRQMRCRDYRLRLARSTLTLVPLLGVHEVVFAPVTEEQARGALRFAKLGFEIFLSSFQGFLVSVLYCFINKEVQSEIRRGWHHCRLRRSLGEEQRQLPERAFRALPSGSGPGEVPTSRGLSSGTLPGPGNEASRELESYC

T2: human amylin-3(a) receptor (human, UniProt P30988 25-474; O60896 24-148)
T2 sequence (looked up) 1: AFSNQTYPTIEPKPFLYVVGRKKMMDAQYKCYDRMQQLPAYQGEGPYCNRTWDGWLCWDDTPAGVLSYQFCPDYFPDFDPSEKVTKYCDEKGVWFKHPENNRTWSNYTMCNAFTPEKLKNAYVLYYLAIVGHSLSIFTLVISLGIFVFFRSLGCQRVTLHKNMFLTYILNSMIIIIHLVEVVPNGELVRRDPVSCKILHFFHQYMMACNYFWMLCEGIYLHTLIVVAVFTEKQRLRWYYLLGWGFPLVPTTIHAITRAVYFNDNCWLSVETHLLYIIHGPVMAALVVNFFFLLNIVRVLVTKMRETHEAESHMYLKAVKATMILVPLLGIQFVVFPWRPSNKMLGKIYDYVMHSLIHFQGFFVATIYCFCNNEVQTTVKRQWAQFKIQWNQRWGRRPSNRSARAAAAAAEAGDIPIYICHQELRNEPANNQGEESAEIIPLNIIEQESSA
T2 sequence (looked up) 2: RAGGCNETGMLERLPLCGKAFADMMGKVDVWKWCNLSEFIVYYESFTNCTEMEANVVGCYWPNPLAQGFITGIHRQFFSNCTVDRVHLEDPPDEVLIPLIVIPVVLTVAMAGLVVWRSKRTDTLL

B1: Compound 87 (peptide)
peptide: H[Aib]HGTFTSDYSILLEEQAAREFIEWLLAGGPSSGEASHLSTAALGRLSAK([AEEA-AEEA-γGlu-C18 diacid])LHRLATLPRTETGSGSP-NH2
B2: Compound 88 (peptide)
peptide: H[Aib]HGTFTSDYSILLEEQAAREFIEWLLAGGPSSGEASHLSTAALGRLSAELHK([AEEA-AEEA-γGlu-C18 diacid])LATLPRTETGSGSP-NH2
B3: Compound 89 (peptide)
peptide: H[Aib]HGTFTSDYSILLEEQAAREFIEWLLAGGPSSGEASHLSTAALGRLSAELHRLK([AEEA-AEEA-γGlu-C18 diacid])TLPRTETGSGSP-NH2
B4: Compound 90 (peptide)
peptide: H[Aib]HGTFTSDYSILLEEQAAREFIEWLLAGGPSSGEASHLSTAALGRLSAELHRLATLPK([AEEA-AEEA-γGlu-C18 diacid])TETGSGSP-NH2
B5: Compound 91 (peptide)
peptide: H[Aib]HGTFTSDYSILLEEQAAREFIEWLLAGGPSSGAGQAPGQAPGASHLSTAQTQRLSAELHRLK([AEEA-AEEA-γGlu-C18 diacid])TLPRTETGSGSP-NH2
B6: Compound 92 (peptide)
peptide: H[Aib]HGTFTSDYSILLEEQAAREFIEWLLAGGPSSGAGQAPGQAPGASHLSTAQTQRLSAELHRLATLPK([AEEA-AEEA-γGlu-C18 diacid])TETGSGSP-NH2
B7: Compound 93 (peptide)
peptide: H[Aib]HGTFTSDYSILLEEQAAREFIEWLLAGGPSSGAGQAPGQAPLASHLSTAQTQRLSAELHK([AEEA-AEEA-γGlu-C18 diacid])LATLPRTETGSGSP-NH2
B8: Compound 94 (peptide)
peptide: Y[Aib]EGTFTSDYSILLEEQAAREFIEWLLAGGPSRGEASHLSTAQTQRLSAELHK([AEEA-AEEA-γGlu-C20 diacid])LATLPRTETGSGSP-NH2
B9: Compound 95 (peptide)
peptide: Y[Aib]EGTFTSDYSILLEEQAAREFIEWLLAGGPSGGGGEASHLSTAQTQRLSAELHK([AEEA-AEEA-γGlu-C18 diacid])LATLPRTETGSGSP-NH2
B10: Compound 96 (peptide)
peptide: Y[Aib]EGTFTSDYSILLEEQAAREFIEWLLAGGPSGGGGEASHLSTAQTQRLSAELHK([AEEA-AEEA-γGlu-C20 diacid])LATLPRTETGSGSP-NH2
B11: Compound 10 (peptide)
peptide: Y[Aib]EGTFTSDYSILLEEQAAREFIEWLLAGGPSK(Chem. 29)GAPPPSGGGEASELSTAALGRLSAELHELATLPRTETGSGSP-NH2
modifications: reading uncertain
B12: Compound 97 (peptide)
peptide: Y[Aib]EGTFTSDYSILLEEQAAREFIEWLLAGGPSSGAGQAPGASHLSTAQTQRLSAELHK([AEEA-AEEA-γGlu-C18 diacid])LATLPRTETGSGSP-NH2
B13: Compound 98 (peptide)
peptide: Y[Aib]EGTFTSDYSILLEEQAAREFIEWLLAGGPSSGAGQAPGQAPLASHLSTAQTARLSAELHK([AEEA-AEEA-γGlu-C18 diacid])LATLPRTETGSGSP-NH2
B14: Compound 99 (peptide)
peptide: Y[Aib]EGTFTSDYSILLEEQAAREFIEWLLAGGPSSGALQAPGQAPLASHLSTAQTQRLSAELHKLATLPRTETGSGSP-NH2
modifications: not fully specified (residue 62)
B15: Compound 100 (peptide)
peptide: H[Aib]HGTFTSDYSILLEEQAAREFIEWLLAGGPSK(Chem. 28)GAPPPSGGGEASHLSTAQTARLSAELHRLADLPRTETGSGSP-NH2
modifications: reading uncertain

The binders below were run against T1, human GIP receptor (assay: cell-based or functional assay).

Binder	hGIPR Potency, no HSA, EC50 [pM]
B1	7.26
B2	5.68
B3	6.47
B4	5.4
B5	3.21
B6	3.12
B7	2.54
B8	2.9
B9	3.13
B10	3.62
B11	2.11
B12	2.3
B13	2.58
B14	2.09
B15	3.95

What follows are binders tested against T3, human GLP-1 receptor (human, UniProt P43220 24-463) (assay: cell-based or functional assay).

Binder	hGLP-1R Potency, no HSA, EC50 [pM]
B1	8.49
B2	4.12
B3	3.86
B4	4.16
B5	3.79
B6	2.55
B7	4.11
B8	16.1
B9	17.9
B10	16.8
B11	13.8
B12	16.1
B13	13.3
B14	16.7
B15	5.85

Each binder was assayed against T2, human amylin-3(a) receptor (assay: cell-based or functional assay).

Binder	hAMYR3 Potency, no HSA, EC50 [pM]
B1	4.99
B2	3.7
B3	3.12
B4	5.45
B5	2.26
B6	2.64
B7	2.23
B8	3.91
B9	3.76
B10	3.73
B11	6.8
B12	2.81
B13	2.3
B14	2.82
B15	3.05

Biological target: T1, human GIP receptor
Experiment: cell-based or functional assay
Remark: another data set of the same source

Binder	hGIPR Potency, 1% HSA, EC50 [pM]
B1	38.6
B2	40.4
B3	30.6
B4	32.5
B5	9.31
B6	8.53
B7	8.58
B8	29.5
B9	22.8
B10	29.9
B11	42.4
B12	8.38
B13	11.2
B14	7.41
B15	217

Biological target: T3, human GLP-1 receptor
Experiment: cell-based or functional assay
Remark: another data set of the same source

Binder	hGLP-1R Potency, 1% HSA, EC50 [pM]
B1	39.3
B2	48.8
B3	29.5
B4	38.6
B5	17.4
B6	13.4
B7	16.4
B8	130
B9	146
B10	162
B11	246
B12	109
B13	43.1
B14	36.2
B15	307

Biological target: T2, human amylin-3(a) receptor
Experiment: cell-based or functional assay
Remark: another data set of the same source

Binder	hAMYR3 Potency, 1% HSA, EC50 [pM]
B1	36.5
B2	102
B3	39.7
B4	183
B5	28.8
B6	75.1
B7	66.4
B8	377
B9	233
B10	595
B11	175
B12	132
B13	108
B14	129
B15	210

— patent US20260174875A1 (Novo Nordisk A/S, priority 2023, published 2026)
